# Experimental data as given in patent US20070059799A1.
# Like-named read-outs stand apart in the source and are kept apart here.
# B1: HBV NUC 29 peptide GMDIDPYK (peptide)
# peptide: GMDIDPYK
# modifications: not checked
# B2: HBV POL 108 peptide … (peptide)
# peptide: KLIMPARFY
# modifications: not checked
# B3: HBV NUC 28 peptide … (peptide)
# peptide: WGMDIDPYK
# modifications: not checked
# B4: peptide 1.0205 (peptide)
# peptide: ILRGTSFVY
# modifications: not checked
# B5: … (HBV POL, exemplary 15-mer with core …) (peptide)
# peptide: WPKFAVPNLQSLTNL
# modifications: not checked
# B6: … (HBV POL, exemplary 15-mer with core …) (peptide)
# peptide: LAQFTSAICSVVRRA
# modifications: not checked
# B7: HBV NUC 29 peptide … (peptide)
# peptide: GMDIDPYKEF
# modifications: not checked
# B8: HBV POL 106 peptide […] (as printed) (peptide)
# peptide: RLKLIMPAR
# modifications: not checked
# B9: … (HBV POL, exemplary 15-mer with core …) (peptide)
# peptide: VGNFTGLYSSTVPVF
# modifications: not checked
# B10: HBV POL 99 peptide LTVNEKRR (peptide)
# peptide: LTVNEKRR
# modifications: not checked
# B11: … (HBV POL, exemplary 15-mer with core …) (peptide)
# peptide: PLPIHTAELLAACFA
# modifications: not checked
# B12: HBV POL 626 peptide … (peptide)
# peptide: VGLLGFAAPFTQCGY
# modifications: not checked
# B13: HBV POL 393 peptide … (peptide)
# peptide: WPKFAVPNL
# modifications: not checked
# B14: HBV NUC 169 peptide … (peptide)
# peptide: LSTLPETTVVR
# modifications: not checked
# B15: HBV NUC 105 peptide ISCLTFGR (peptide)
# peptide: ISCLTFGR
# modifications: not checked
# B16: HBV POL 760 peptide … (peptide)
# peptide: ILRGTSFVY
# modifications: not checked
# B17: HBV NUC 75 peptide NLEDPASR (peptide)
# peptide: NLEDPASR
# modifications: not checked
# B18: HBV POL 153 peptide KAGILYKA (peptide)
# peptide: KAGILYKR
# modifications: not checked
# B19: HBV POL 641 peptide … (peptide)
# peptide: PALMPLYACI
# modifications: not checked
# B20: … (HBV POL, exemplary 15-mer with core …) (peptide)
# peptide: CQVFADATPTGWGLA
# modifications: not checked
# B21: HBV POL 123 peptide … (peptide)
# peptide: LPLDKGIKPYY
# modifications: not checked
# B22: HBV POL 654 peptide … (peptide)
# peptide: QAFTFSPTY
# modifications: not checked
# B23: HBV POL 738 peptide NSVVLSRK (peptide)
# peptide: NSVVLSRK
# modifications: not checked
# B24: HBV NUC 28 peptide … (peptide)
# peptide: RDLLDTASALYREAL
# modifications: not checked
# B25: HBV POL 47 peptide … (peptide)
# peptide: NVSIPWTHKV
# modifications: not checked
# B26: … (HBV NUC, exemplary 15-mer with core …) (peptide)
# peptide: NAPILSTLPETTVVR
# modifications: not checked
# What was measured:
# HLA-A*3301 (human) [1] = assay: competition with 125I-labelled probe peptide for purified HLA, gel filtration
# HLA-A*3101 (human) [2] = assay: as above
# HLA-A*0301 (human) [3] = assay: as above
# HLA-A*0301 (human) [4] = molecular target: HLA-A*0301 (human)
# HLA-A*0101 (human) [5] = molecular target: HLA-A*0101 (human)
# HLA-A*0301 (human) [6] = molecular target: HLA-A*0301 (human); remark: listed apart in the source
# HLA-A*03 (human) = conditions: remark: other sources report otherwise
# [7] = molecular target: T1, HLA-DR5w11 (DRB1*1101) (human)
# T1 chain 1: not shown
# T1 chain 2: not shown
# [8] = molecular target: T2, HLA-DR7 (DRB1*0701) (human)
# T2 chain 1: not shown
# T2 chain 2: not shown
# [9] = molecular target: T3, HLA-DR1 (DRB1*0101) (human)
# T3 chain 1: not shown
# T3 chain 2: not shown
# [10] = molecular target: T4, HLA-DR6w19 (DRB1*1302) (human); conditions: remark: other sources report otherwise
# T4 chain 1: not shown
# T4 chain 2: not shown
# [11] = molecular target: T5, HLA-DR3 (DRB1*0301) (human); conditions: remark: other sources report otherwise
# T5 chain 1: not shown
# T5 chain 2: not shown
# [12] = molecular target: T6, HLA-DR2w2β1 (DRB1*1501) (human); conditions: remark: other sources report otherwise
# T6 chain 1: not shown
# T6 chain 2: not shown
# [13] = molecular target: T7, HLA-DR4w15 (DRB1*0405) (human)
# T7 chain 1: not shown
# T7 chain 2: not shown
# HLA-A*3301 (human) [14] = conditions: remark: other sources report otherwise
# HLA-A*3101 (human) [15] = conditions: remark: other sources report otherwise
# HLA-A*0301 (human) [16] = conditions: remark: other sources report otherwise
# HLA-A*1101 (human) = assay: competition with 125I-labelled probe peptide for purified HLA, gel filtration
# [17] = molecular target: T1, HLA-DR5w11 (DRB1*1101) (human); assay: competition with 125I-labelled probe peptide on purified HLA-DR, gel filtration; conditions: remark: other sources report otherwise
# [18] = molecular target: T8, HLA-DR2w2β2 (DRB5*0101) (human); assay: as above; conditions: remark: other sources report otherwise
# T8 chain 1: not shown
# T8 chain 2: not shown
# [19] = molecular target: T4, HLA-DR6w19 (DRB1*1302) (human); assay: as above; conditions: remark: other sources report otherwise
# HLA-B*5401 (human) = assay: competition with 125I-labelled standard peptide for purified HLA, gel filtration
# HLA-B*0702 (human) = assay: as above
# HLA-B*5101 (human) = assay: as above
# HLA-A*6801 (human) = assay: competition with 125I-labelled probe peptide for purified HLA, gel filtration
# HLA-A*0101 (human) [20] = conditions: remark: other sources report otherwise
# HLA-A*0201 (human) = assay: competition with 125I-labeled standard peptide for purified HLA, gel filtration
# HLA-B*3501 (human) = assay: competition with 125I-labelled standard peptide for purified HLA, gel filtration
# HLA-A*0301 (human) [21] = molecular target: HLA-A*0301 (human); remark: listed apart in the source
# HLA-A*3301 (human) [22] = assay: inhibition of 125I-labelled standard peptide binding to purified HLA
# HLA-A*3101 (human) [23] = assay: as above
# HLA-A*0301 (human) [24] = assay: as above
# [25] = molecular target: T2, HLA-DR7 (DRB1*0701) (human); assay: competition with 125I-labelled probe peptide on purified HLA-DR, gel filtration; conditions: remark: other sources report otherwise
# [26] = molecular target: T3, HLA-DR1 (DRB1*0101) (human); assay: as above; conditions: remark: other sources report otherwise
# [27] = molecular target: T1, HLA-DR5w11 (DRB1*1101) (human); conditions: remark: other sources report otherwise
# [28] = molecular target: T8, HLA-DR2w2β2 (DRB5*0101) (human)
# [29] = molecular target: T9, HLA-DR4w4 (DRB1*0401) (human); conditions: remark: other sources report otherwise
# T9 chain 1: not shown
# T9 chain 2: not shown
# [30] = molecular target: T2, HLA-DR7 (DRB1*0701) (human); conditions: remark: other sources report otherwise
# [31] = molecular target: T3, HLA-DR1 (DRB1*0101) (human); conditions: remark: other sources report otherwise
# [32] = remark: other sources report otherwise
binder,measurement,setting,value
B1,binding affinity ratio (IC50 of standard peptide / IC50 of test peptide),HLA-A*3301 (human) [1],-0.0009
same,binding affinity ratio (IC50 of standard peptide / IC50 of test peptide),HLA-A*3101 (human) [2],-0.0009
same,binding affinity ratio (IC50 of standard peptide / IC50 of test peptide),HLA-A*0301 (human) [3],0.0008
same,binding affinity ratio (IC50 of standard peptide / IC50 of test peptide),HLA-A*0301 (human) [4],0.0006
B2,binding affinity ratio (IC50 of standard peptide / IC50 of test peptide),HLA-A*0101 (human) [5],0.0017
B3,binding affinity ratio (IC50 of standard peptide / IC50 of test peptide),HLA-A*0301 (human) [6],-0.0003
B4,IC50,HLA-A*03 (human),250 nM
B5,binding affinity ratio (IC50 of standard peptide / IC50 of test peptide),[7],0.0002
same,binding affinity ratio (IC50 of standard peptide / IC50 of test peptide),[8],0.0008
same,binding affinity ratio (IC50 of standard peptide / IC50 of test peptide),[9],0.0007
B6,binding affinity ratio (IC50 of standard peptide / IC50 of test peptide),[7]; [32],0.0076
same,binding affinity ratio (IC50 of standard peptide / IC50 of test peptide),[10],0.001
same,binding affinity ratio (IC50 of standard peptide / IC50 of test peptide),[11],-0.0009
same,binding affinity ratio (IC50 of standard peptide / IC50 of test peptide),[12],0.0065
same,binding affinity ratio (IC50 of standard peptide / IC50 of test peptide),[8]; [32],0.028
same,binding affinity ratio (IC50 of standard peptide / IC50 of test peptide),[13]; [32],0.028
B7,binding affinity ratio (IC50 of standard peptide / IC50 of test peptide),HLA-A*0301 (human) [4],-0.0003
B8,binding affinity ratio (IC50 of standard peptide / IC50 of test peptide),HLA-A*3301 (human) [14],0.049
same,binding affinity ratio (IC50 of standard peptide / IC50 of test peptide),HLA-A*3101 (human) [15],3.1
same,binding affinity ratio (IC50 of standard peptide / IC50 of test peptide),HLA-A*0301 (human) [16],0.095
B9,binding affinity ratio (IC50 of standard peptide / IC50 of test peptide),[12],0.01
B10,binding affinity ratio (IC50 of standard peptide / IC50 of test peptide),HLA-A*1101 (human),-0.0002
same,binding affinity ratio (IC50 of standard peptide / IC50 of test peptide),HLA-A*3301 (human) [1],-0.0009
same,binding affinity ratio (IC50 of standard peptide / IC50 of test peptide),HLA-A*3101 (human) [2],-0.0009
same,binding affinity ratio (IC50 of standard peptide / IC50 of test peptide),HLA-A*0301 (human) [3],-0.0002
B11,binding affinity ratio (IC50 of standard peptide / IC50 of test peptide),[8]; [32],-0.0003
same,binding affinity ratio (IC50 of standard peptide / IC50 of test peptide),[9]; [32],0.0046
B12,binding affinity ratio (IC50 of standard peptide / IC50 of test peptide),[17],-0.0004
same,binding affinity ratio (IC50 of standard peptide / IC50 of test peptide),[18],0.0008
same,binding affinity ratio (IC50 of standard peptide / IC50 of test peptide),[19],-0.0001
B13,binding affinity ratio (IC50 of standard peptide / IC50 of test peptide),HLA-B*5401 (human),0.0015
same,binding affinity ratio (IC50 of standard peptide / IC50 of test peptide),HLA-B*0702 (human),0.0054
same,binding affinity ratio (IC50 of standard peptide / IC50 of test peptide),HLA-B*5101 (human),0.0015
B14,binding affinity ratio (IC50 of standard peptide / IC50 of test peptide),HLA-A*3301 (human) [1],-0.0023
same,binding affinity ratio (IC50 of standard peptide / IC50 of test peptide),HLA-A*6801 (human),0.0078
same,binding affinity ratio (IC50 of standard peptide / IC50 of test peptide),HLA-A*3101 (human) [2],-0.0012
same,binding affinity ratio (IC50 of standard peptide / IC50 of test peptide),HLA-A*0301 (human) [3],-0.0009
B15,binding affinity ratio (IC50 of standard peptide / IC50 of test peptide),HLA-A*3301 (human) [1],-0.0009
same,binding affinity ratio (IC50 of standard peptide / IC50 of test peptide),HLA-A*6801 (human),0.0017
same,binding affinity ratio (IC50 of standard peptide / IC50 of test peptide),HLA-A*3101 (human) [2],0.0017
B16,binding affinity ratio (IC50 of standard peptide / IC50 of test peptide),HLA-A*0101 (human) [20],0.0017
B17,binding affinity ratio (IC50 of standard peptide / IC50 of test peptide),HLA-A*1101 (human),-0.0002
same,binding affinity ratio (IC50 of standard peptide / IC50 of test peptide),HLA-A*3301 (human) [1],-0.0009
same,binding affinity ratio (IC50 of standard peptide / IC50 of test peptide),HLA-A*3101 (human) [2],-0.0009
same,binding affinity ratio (IC50 of standard peptide / IC50 of test peptide),HLA-A*0301 (human) [3],-0.0002
B18,binding affinity ratio (IC50 of standard peptide / IC50 of test peptide),HLA-A*1101 (human),-0.0002
same,binding affinity ratio (IC50 of standard peptide / IC50 of test peptide),HLA-A*3301 (human) [1],-0.0009
same,binding affinity ratio (IC50 of standard peptide / IC50 of test peptide),HLA-A*3101 (human) [2],0.0015
B19,binding affinity ratio (IC50 of standard peptide / IC50 of test peptide),HLA-A*0201 (human),0.0001
B20,binding affinity ratio (IC50 of standard peptide / IC50 of test peptide),[13],0.28
B21,binding affinity ratio (IC50 of standard peptide / IC50 of test peptide),HLA-B*0702 (human),-0.0002
same,binding affinity ratio (IC50 of standard peptide / IC50 of test peptide),HLA-B*3501 (human),0.0009
B22,binding affinity ratio (IC50 of standard peptide / IC50 of test peptide),HLA-A*0301 (human) [21],0.003
B23,binding affinity ratio (IC50 of standard peptide / IC50 of test peptide),HLA-A*3301 (human) [22],-0.0009
same,binding affinity ratio (IC50 of standard peptide / IC50 of test peptide),HLA-A*3101 (human) [23],-0.0009
same,binding affinity ratio (IC50 of standard peptide / IC50 of test peptide),HLA-A*0301 (human) [24],0.0006
B24,binding affinity ratio (IC50 of standard peptide / IC50 of test peptide),[25],0.077
same,binding affinity ratio (IC50 of standard peptide / IC50 of test peptide),[26],0.0001
B25,binding affinity ratio (IC50 of standard peptide / IC50 of test peptide),HLA-A*0201 (human),0.0001
B26,binding affinity ratio (IC50 of standard peptide / IC50 of test peptide),[27],-0.0002
same,binding affinity ratio (IC50 of standard peptide / IC50 of test peptide),[28],0.0009
same,binding affinity ratio (IC50 of standard peptide / IC50 of test peptide),[29],-0.0007
same,binding affinity ratio (IC50 of standard peptide / IC50 of test peptide),[30],0.0005
same,binding affinity ratio (IC50 of standard peptide / IC50 of test peptide),[31],0.0009
